Kd and koff data for one molecule are collected here from patent US20160376363A1 (ALDER BIOPHARMACEUTICALS, published 2016).

One assay addresses T1, human PACAP38 (human, C-terminal lysine is amidated; N-terminally or C-terminally biotinylated in the HTRF and cell binding assays).
T1 construct: Synthetic peptide (American Peptide; biotinylated forms from AnaSpec); also called PACAP 1-38; wild-type PACAP peptide (1-38)
T1 peptide: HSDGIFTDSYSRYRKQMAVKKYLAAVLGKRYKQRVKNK
The experiment in a line: SPR (ProteOn XPR36), antibody amine-coupled to chip, peptide as analyte, 1:1 Langmuir fit.

For the next assay, the target named is T2, human PACAP27 (human, C-terminal leucine is amidated; 125I-labelled in Example 10).
T2 construct: also called 125I-labelled PACAP27
T2 peptide: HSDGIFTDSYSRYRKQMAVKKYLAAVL
The assay is described as above.

B1: Ab21 (antibody, V domains shown)
VH: QSVEESGGRLVTPGTPLTLTCTVSGIDLSSYYMTWVRQAPGKGLEWVGFIDAGGSAYYATWAKGRFTISKASTTVDLKITSPTTEDTATYFCARDLDLWGPGTLVTVSS
VL: AAVLTQTPSPVSAAVGGTVSISCKSSESVYGDYLAWFQQKPGQPPKQLIYDASTLASGVPSRFKGSGSGTQFTLTISGVQCDDAATYYCAGGYVSAGVAFGGGTEVVVKR
What is called Kd is a measure of binding affinity in units of concentration. A high value points to a looser complex. The koff is a measure of how fast the partners let go of each other. Take B1: in the assay with human PACAP38, the affinity, expressed as Kd, was 0.027 nM and the koff is 1e-05 s⁻¹. In the assay with human PACAP27, this molecule had a Kd of 0.013 nM and a koff of 1e-05 s⁻¹.
